Reference: patent publication US20230025732A1 (INNATE PHARMA, published 2023)

Tests used:
[1] = molecular target: T1, human CD39 expressed at the cell surface (human, UniProt P49961 1-510); assay: flow cytometry, Ramos lymphoma cells, first set of experiments; Ramos cells, first set of experiments
T1 construct: On CHO transfectants, Hek-293T transfectants, Ramos and Mino tumor cells; also called huCD39; CHO-huCD39
T1 sequence: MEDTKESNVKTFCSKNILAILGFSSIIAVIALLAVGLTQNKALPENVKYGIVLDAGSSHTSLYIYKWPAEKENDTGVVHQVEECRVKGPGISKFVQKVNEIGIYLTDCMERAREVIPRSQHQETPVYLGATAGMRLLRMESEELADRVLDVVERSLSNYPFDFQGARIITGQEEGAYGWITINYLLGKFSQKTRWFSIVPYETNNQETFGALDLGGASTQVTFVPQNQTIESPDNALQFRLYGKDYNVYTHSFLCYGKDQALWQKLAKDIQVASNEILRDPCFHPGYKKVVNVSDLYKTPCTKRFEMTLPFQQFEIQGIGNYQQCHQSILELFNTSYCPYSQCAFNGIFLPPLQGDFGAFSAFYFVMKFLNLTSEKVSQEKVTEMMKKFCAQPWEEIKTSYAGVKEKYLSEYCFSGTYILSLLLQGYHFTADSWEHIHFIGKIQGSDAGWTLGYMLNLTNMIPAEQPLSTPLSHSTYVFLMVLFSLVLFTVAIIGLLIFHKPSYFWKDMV
Description: (§1) Cells were incubated with various concentration of unlabeled anti-CD39 antibody from 30 μg/ml to 5×10⁻⁴ μg/ml, for 30 minutes at 4° C. After washes, cells were incubated with Goat anti-mouse H+L labeled secondary antibody for 30 min at 4° C.

[2] = molecular target: T1, human CD39 expressed at the cell surface; assay: flow cytometry titration on CHO cells expressing human CD39 (Mediane of Fluo), panel CHO-huCD39
Description: as §1

[3] = molecular target: T2, Human CD39-L4, also known as NTPDase5 or ENTPD5 (human, UniProt O75356 25-428); assay: ELISA on coated recombinant human CD39-L4, panel huCD39 L4; no legend on the sheet, curve is I-394 by paragraph 85
T2 construct: Recombinant protein coated in ELISA
T2 sequence: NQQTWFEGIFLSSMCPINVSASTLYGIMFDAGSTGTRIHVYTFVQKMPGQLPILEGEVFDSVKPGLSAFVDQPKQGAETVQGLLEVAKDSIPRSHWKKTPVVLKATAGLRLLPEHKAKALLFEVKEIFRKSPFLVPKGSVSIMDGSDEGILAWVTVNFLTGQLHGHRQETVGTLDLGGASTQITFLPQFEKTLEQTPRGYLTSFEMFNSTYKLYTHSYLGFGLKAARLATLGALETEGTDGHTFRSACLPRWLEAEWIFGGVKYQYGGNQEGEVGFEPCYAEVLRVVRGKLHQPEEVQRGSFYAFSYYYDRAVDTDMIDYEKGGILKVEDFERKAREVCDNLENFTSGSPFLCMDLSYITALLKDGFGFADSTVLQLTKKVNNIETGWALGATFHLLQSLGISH
Description: Wells were washed in TBS Tween 20, and further saturated 2H at RT in TBS Blocking buffer. Dose range concentration of primary antibody was incubated in TBS blocking buffer for 2 h at RT. Wells were washed in TBS Tween 20. […] Optical density was measured on Enspire™ at OD=450.

[4] = molecular target: T3, cynomolgus (Macaca fascicularis) CD39 on CHO cells (cynomolgus (Macaca fascicularis), UniProt A0A7N9DGH8 1-510); assay: flow cytometry titration on CHO cells expressing cynomolgus CD39 (Mediane of Fluo), panel CHO-cyCD39
T3 construct: whole, on cells; also called CHO-cyCD39; cyCD39
T3 sequence: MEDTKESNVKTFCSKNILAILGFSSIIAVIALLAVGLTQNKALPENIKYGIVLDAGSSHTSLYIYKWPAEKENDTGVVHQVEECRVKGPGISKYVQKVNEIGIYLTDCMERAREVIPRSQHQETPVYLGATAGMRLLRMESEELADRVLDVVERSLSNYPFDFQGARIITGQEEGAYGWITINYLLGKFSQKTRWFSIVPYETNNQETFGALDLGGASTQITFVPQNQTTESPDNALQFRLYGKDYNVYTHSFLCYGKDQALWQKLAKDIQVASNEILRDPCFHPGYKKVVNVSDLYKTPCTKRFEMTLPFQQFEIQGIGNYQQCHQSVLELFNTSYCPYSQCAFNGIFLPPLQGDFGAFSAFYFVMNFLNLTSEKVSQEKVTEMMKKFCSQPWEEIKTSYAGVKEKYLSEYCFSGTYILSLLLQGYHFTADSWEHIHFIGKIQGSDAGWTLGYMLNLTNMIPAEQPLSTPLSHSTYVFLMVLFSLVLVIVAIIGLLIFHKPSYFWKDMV
Description: as §1

[5] = molecular target: T4, CD39-M2 extracellular domain recombinant protein (soluble recombinant human CD39 with M2 tag) (human, UniProt P49961 38-478, limits assumed); assay: cell-based or functional assay
T4 sequence: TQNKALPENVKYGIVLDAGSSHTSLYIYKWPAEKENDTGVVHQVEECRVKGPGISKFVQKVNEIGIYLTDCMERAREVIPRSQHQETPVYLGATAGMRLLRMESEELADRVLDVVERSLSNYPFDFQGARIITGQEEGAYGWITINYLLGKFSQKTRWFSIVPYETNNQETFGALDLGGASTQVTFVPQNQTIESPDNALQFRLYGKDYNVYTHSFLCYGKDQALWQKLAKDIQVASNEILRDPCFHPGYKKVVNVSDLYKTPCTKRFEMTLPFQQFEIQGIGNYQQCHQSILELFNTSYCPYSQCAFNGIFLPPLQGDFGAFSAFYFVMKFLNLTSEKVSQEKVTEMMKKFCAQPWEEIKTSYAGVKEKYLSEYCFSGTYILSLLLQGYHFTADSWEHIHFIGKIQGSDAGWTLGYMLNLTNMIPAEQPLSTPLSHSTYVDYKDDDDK

[6] = molecular target: T1, human CD39 expressed at the cell surface; assay: cell-based or functional assay

B1: I-394 (antibody, human IgG1, V domains shown)
VH: EVQLQQSGPELVKPGASVKMSCKASGYTFTDYNMHWVKQSHGRTLEWIGYIVPLNGGSTFNQKFKGRATLTVNTSSRTAYMELRSLTSEDSAAYYCARGGTRFAYWGQGTLVTVSA
VL: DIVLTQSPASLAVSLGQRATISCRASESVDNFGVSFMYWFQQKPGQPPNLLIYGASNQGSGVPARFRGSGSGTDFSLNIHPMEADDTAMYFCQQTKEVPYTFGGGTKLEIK
EC50 [1]: 0.16 µg/mL
EC50 (read off the curve) [2]: ~0.2 µg/mL
binding result [3]: no binding (tested: about 50 µg/ml)
EC50 (read off the curve) [4]: ~0.4 µg/mL
IC50, inhibition of ATPase activity of soluble CD39 [5]: 0.003 µg/mL
IC50, inhibition of CD39 ATPase activity in Ramos cells [6]: 0.05 µg/mL
